The results in this text go back to patent publication US20060276386A1 (published 2006).

This assay deals with T1, C-terminally FLAG-tagged full length UCH-L5 (mouse, UniProt Q9WUP7 1-329).
T1 construct: range 1-329; Co-expressed in HEK-293 cells and immunoprecipitated with an anti-FLAG monoclonal; also called UCH-L5 FLAG
T1 sequence: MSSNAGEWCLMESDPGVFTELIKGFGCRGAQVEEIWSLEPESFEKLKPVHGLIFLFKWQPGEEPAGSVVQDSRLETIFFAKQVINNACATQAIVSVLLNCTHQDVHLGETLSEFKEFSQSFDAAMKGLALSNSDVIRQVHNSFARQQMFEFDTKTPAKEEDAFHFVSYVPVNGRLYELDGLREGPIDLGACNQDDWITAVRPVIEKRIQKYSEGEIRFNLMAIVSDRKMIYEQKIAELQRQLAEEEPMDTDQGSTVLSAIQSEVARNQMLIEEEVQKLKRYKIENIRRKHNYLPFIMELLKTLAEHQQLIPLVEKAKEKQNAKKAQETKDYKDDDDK
The assay is described as follows: co-immunoprecipitation: anti-FLAG IP, anti-HA western blot, HEK-293 lysates. On the procedure:
C-terminally FLAG®-tagged UCH-L5 or UCH-L5ΔC were co-expressed in human embryonic kidney (HEK)—293 cells with N-terminally HA-tagged Smad proteins.
Referring to FIG. 3, HEK-293 cells were transfected with 20 μg of DNA construct directing the expression of UCH-L5 FLAG or UCH-L5ΔC FLAG and 20 μg of DNA construct expressing one of: HA-Smad 3₁₋₃₈₅; HA-Smad3₁₋₂₄₀; or HA-Smad3₁₋₄₄. Lysates of the cells were prepared by a standard detergent lysis method, using 1% Triton X-100 and then immunoprecipitated with an anti-FLAG monoclonal. The precipitated proteins were then subjected to SDS-PAGE.
For comparison, a blot of the same samples was then probed with a haemagglutinin-specific 1st antibody.
A general note: In western blotting, separated proteins are transferred to a membrane and probed.

B1: N-terminally HA-tagged Smad3 residues 1-144 (other)
chain: MSSILPFTPPIVKRLLGWKKGEQNGQEEKWCEKAVKSLVKKLKKTGQLDELEKAITTQNVNTKCITIPRSLDGRLQVSHRKGLPHVIYCRLWRWPDLHSHHELRAMELCEFAFNMKKDEVCVNPYHYQRVETPVLPPVLVPRHT
notes: not shown: haemagglutinin (HA) tag, N-terminal
Take B1: the binding result is “no binding”.
